Experimental data taken from the nanobody polyreactivity screen of Harvey et al. (2022).

Assay: yeast display, Sf9 membrane polyspecificity reagent, FACS + sequencing; frameworks hold sequencing errors
Method in brief: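 After 36–48 hours of galactose induction, yeast (Saccharomyces cerevisiae BJ5465) displaying a synthetic nanobody library were stained at 4 °C for 1 hour with 10% biotinylated, detergent-solubilized Sf9 membrane reagent. Streptavidin microbeads enriched the stained cells before FACS sorting into low and high (top ~1%) gates on anti-HA and streptavidin fluorescence. Each clone's polyreactivity label reflects its gate of origin.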

## QVQLVESGGGLVQAGGSLRLSCAASGFTFYRYAMGWYRQAPGKERELVAVITGRGGTTYYADSVKGRFTISRDNAKNTVYLQMNSMKPEDTAVYYCAVQTHRSLDPYDYWGQGTQVTVSS
  polyreactivity (PSR sort gate): high polyreactivity

## QVQLVESGGGLVQAGGSLRLSCAASGFTFYRYDMGWYRQAPGQERELVAAITNNGGNTYYADSVKGRFTISRDNAKNTVYLQMNSLKPEDTAVYYCAARTWGRYDYWGQGTQVTVSS
  polyreactivity (PSR sort gate): high polyreactivity

## QVQLVESGGGLVQAGGSLRLSCAASGFTFYRYPMGWYRQAPGKETELVAAITKRGDRTYYADSVKGRFRISRDNAKNTVFLQMSSLKPEDTAVYFCASDPYYSVSYWLAYDYWGQGTQVTVSS
  polyreactivity (PSR sort gate): high polyreactivity

## QVQLVESGGGLVQAGGSLRLSCAASGFTFYRYTMGWYRQAPGKERELFAAISARGVSTYYADSVKGRFTISRDNAKNTVYLQMNSLKPEDTAVYYCYVSRYDTWGQGTQVTVTS
  polyreactivity (PSR sort gate): high polyreactivity

## QVQLVESGGGLVQAGGSLRLSCAASGFTFYRYVMGWYRQAPGKERELVAAITGGGRTYYADSVKGRFTISRDNAKNTVYLQMNSLKPEDTAVYYCNKAVPAWGLYDYWGQGTQVTVSS
  polyreactivity (PSR sort gate): low polyreactivity

## QVQLVESGGGLVQAGGSLRLSCAASGFTFYSNSMGWYRQAPGKERELVAAISSGGGTTYYADSVKGRFTISRDNAKNTVYLQMNSLKPEYTAVYYCAAGLSFFRSYSGFYYWGQGTQVTVSS
  polyreactivity (PSR sort gate): low polyreactivity

## QVQLVESGGGLVQAGGSLRLSCAASGFTFYSYAMGWYRQAPGKERELVAAISWSGTRTYYADSVKGRFTISRDIAKNTVYLQMNSLKPEDTAVYYCAARGYRYGYGYWGQGTQVTVSS
  polyreactivity (PSR sort gate): high polyreactivity

## QVQLVESGGGLVQAGGSLRLSCAASGFTFYSYAMGWYRQAPGKERELVATITSAGSTNYADSVKGRFTISRDNAKNTVYLQMNSLKPEDTAVYYCAAVYYYIYYWGQVTQVTVSS
  polyreactivity (PSR sort gate): high polyreactivity

## QVQLVESGGGLVQAGGSLRLSCAASGFTFYSYDMGWYRQAPGKERELVAAITWSGGSTYYADSVKGRFTISRDNAKNTVYLQMNSLKPEDTAVYYCAAELFPLQHFWVAYATRRYDYWGQGTQVTVSS
  polyreactivity (PSR sort gate): low polyreactivity

## QVQLVESGGGLVQAGGSLRLSCAASGFTFYTNAMGWYRPAPGKEREFVAAISFSGGTYYADSVKGRFTISRDNAKNTVYLQMNSLKPEDTAVYYCNARYPRYYRGVIQYDYWGQGTQVTVSS
  polyreactivity (PSR sort gate): low polyreactivity

## QVQLVESGGGLVQAGGSLRLSCAASGFTFYTNAMGWYRPAPWKERELVAAIYARTGRTYYADSVKGRFTISRDNAKNTVFLQMNSLKPEDTAVYYCAKDRQSSSTDYGYWGQGTQVTVSS
  polyreactivity (PSR sort gate): high polyreactivity

## QVQLVESGGGLVQAGGSLRLSCAASGFTFYTYAMRLYRQAPGKERELVAAISKSGGSTYYADSVKGRFTISRDNAKNTVYLQMNSLKPEDTAVYYCAAVVVYFDEYDYWGQGTQVTVSS
  polyreactivity (PSR sort gate): low polyreactivity

## QVQLVESGGGLVQAGGSLRLSCAASGFTFYVNAMGWYRQAPGKERELVAAISSRGGSTYYADSVKGRFTISRDNAKNTVYLQMNSLKPEDTAVYYCATAKSYGEDSWGQGTQVTVSS
  polyreactivity (PSR sort gate): high polyreactivity

## QVQLVESGGGLVQAGGSLRLSCAASGFTFYVNAMGWYRQAPGKERELVAAISSSGTRTYYADSVKGRFTISRDNAKNTVYLQMNSLKPEDTAVYYCAARGQAYSGDRMYYWGQGTLVTVSS
  polyreactivity (PSR sort gate): high polyreactivity

## QVQLVESGGGLVQAGGSLRLSCAASGFTFYVNAMGWYRQAPGKERELVAAISSSGTRTYYADSVKGRFTISRDNAKNTVYLQMNSLKPEDTAVYYCAARGQAYSGDRMYYWGQGTQVTVSS
  polyreactivity (PSR sort gate): high polyreactivity

## QVQLVESGGGLVQAGGSLRLSCAASGFTFYWYAMGWYRQAPGKEREFVAAIDQSGGSTYYADSVKGRFTISRDNAKNTVYLQMNSLKPEDTAVYYCAKLYTIGYDYWGQGTQVTVSS
  polyreactivity (PSR sort gate): low polyreactivity

## QVQLVESGGGLVQAGGSLRLSCAASGFTFYWYDMGWDRQAPGKEREFVAAIVQSGGSTYYADSVKGRFSISRDNAKITVYLQMKSLKPEDTAVYYGAARYILWDGDSWTEFDYWGQGTQVTVSS
  polyreactivity (PSR sort gate): low polyreactivity
